The supplement of paper PMC9170038

System: K4 kissing-loop RNA reporter
Test: apparent KD of K4 kissing-loop reporter; higher = weaker reporter binding
Conditions: Eterna round: R107; input ligand: theophylline 20 uM
Procedure: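 RNA-MaP round R107: designed RNA switches with theophylline, tryptophan, arginine or FMN aptamers are transcribed on-chip within common flanks. They are titrated with a labelled K4 kissing-loop RNA reporter in RNA-MaP buffer (100 mM Tris pH 7.5, 80 mM KCl, 4 mM MgCl2), without ligand or with the indicated ligand. Median apparent KD per design.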
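Further: bound reporter read as fluorescence of individual clusters on recovered sequencing chips by microscopy, with normalized cluster intensities fitted with a binding model.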

Row | Sequence | apparent KD of K4 kissing-loop reporter
1 | GUUCCCUACAAGGAUACCAGAACGUGUAGUCCGAGCGCUAGUGAUGUUGGCGUCUACCUCUUCCCUUGGCAGCCUGCAAAUCAGU [theeternabot_sameState_KL_Theo_B_48] | 217 nM
2 | AGCCUAGGAGUCAUUUCCUGCCCGUACGAUACCAGCAUUACCAGUUGCCCUUGGCAGCGUUAUAAGGCCAGUGAUGUUGGCCACU [theeternabot_sameState_KL_Theo_A_22] | 197 nM
3 | UGAUAAAGCAGUGAUGUUGCAAGAAAUGAUACCAGUUAAGAAAAGAACCCUUGGCAGCAUAAAGUGCGCUCUAAUGAGUGUGCUU [theophylline a same state] | 231 nM
4 | GGUAUCUAUACAGAUACCAGUCGUACAGCACCAUUACAGGUUAGUGAUGUUAACCUGUACGACCCUUGGCAGCUGUAUAAUAAUA [Theo B Ex t2a] | 121 nM
5 | ACGUAGUUCUAGGAUACCAGCCAAAUAGCCAGGACGAGAGUCCUGGCUGCCAGUGAUGUUGGCCCUUGGCAGCCUAGAUCUUCUU [zmodel 1] | 218 nM
6 | UGAUACCAGACGGCCGCCACUUCCGUAAGUCAAAGACUUACCAAGAGAAUCGUCCAGUGAUGUUGGAGGACCGGGUCUGGUAUCU [FiskerMod 7 - Jieux - Exclusion - Tryptophan B] | 849 nM
7 | GCAAAACGCAGUGAUGUUGCGAUCUCGGAAGGAGCGCGUGAAAACGCAGGUAGGUCGCCGAGUCAGUGAGUAUCUCGCUGUUUGC [Arginine A K4 19] | 455 nM
8 | UGAAAUCGAAUUCCGCGUGCAACGCCAGUAAAGGAUAUCAUCACACUGAGAAGGUUACGAAGCGGAGUGAUGUUCCGCUCUAUCC [theeternabot_sameState_KL_FMN_A_50] | 114 nM

Same assay, conditions: Eterna round: R107; input ligand: tryptophan 2.4 mM

Row | Sequence | apparent KD of K4 kissing-loop reporter
9 | UGACGUUUGGGAAGGAGCGGAAUGUAAUACGGAAUGCGUGGAGAUGCAGUGAUGUUGCAGAUCCAGGUAGGUCGCCCAAGGGACG [Soanina] | 87.8 nM
10 | UGUGUUGUUGUGAUGUUUGGUGUUGUAGGGCAGGAUAUCGUAGAGGCGAGAAGGGCUUUUGUGCGGUAUGAGUGAUGUUUGUAGG [svvsmullin] | 122 nM
11 | UUUAUUAAGACGGCCGCCACUGAAUCAUAGUGAUGUUAUGAUAAAAUUUUAGAUAAUAAUAACAGCAGGACCGGGUCAAUUAUUA [JR_SSTryptoB_Sub015] | 182 nM
12 | CCUAUCUCAUACGAUACCAGUCGUCGAGUGAUGUUCGAUUAAAUAAAUUUGCCAAAUAACGACCCUUGGCAGCGUAUGGGAUAGG [Ex Theophylline B K4 16] | 326 nM
13 | CACGAUGAAUUCUCUAGGAGUGAUGUUUUUCGAGGACCGGUACGGCCGCCACUCGGACCACGAGCGUGGUAGCGGCGAAAAGACU [qpmullin] | 1070 nM
14 | AAACAUUGGUCGGAUACCAGCUUGAUCGGAAACGAUCUGCUGGAGUGAUGUUCCAAGUAAAGCCCUUGGCAGCCGACCGAUGAAA [MAT - Same State Theophlline B - Mod of Eli - D17] | 74.5 nM
15 | UGAUACCAGACGGCCGCCACUCCCGUAAGUCAAAGACUUACGAAGAGUAUCGUCCAGUGAUGUUGGAGGACCGGGUCUGGUAUCU [FiskerMod 10 - Jieux - Exclusion - Tryptophan B] | 729 nM
16 | UACUUAUAGUUAUUUCUACAUUUAUUUAGUCAGGAUAUCGAUUAGUCGAGAAGGGACAAUAUCAAGUGAUGUUUGAUAAUUCAAA [JR_ExcFMNA_Sub012] | 84.9 nM
17 | GCCGUACGCACGGAUACCAGCACUCGGUGAGUGAUGUUCACGGUGUGGUAUUCACCGGGCUGCCCUUGGCAGCCGUGCGUACGGC | 283 nM
18 | UGUCAUUGGUCGGCCGCCACUUCGUGUGGAGUGAUGUUUUGUAGGACGGAUCGAAAGAUCUGUCGAAGGACCGGGACCGAUGACU [FiskerMod 19 - Jieux - Same State - Tryptophan B] | 285 nM
19 | AAUGUACAGGGAAGGAGCGUCGUCCAGUGAUGUUGGAGUUAAAUACCAGUGAUGUUGGUUAGGCAGGUAGGUCGCCCUAAAGUAU [#08 K4 Arginine B Exclusion] | 75.2 nM
20 | GUGUGUGUCGGAGGAUAUGCGAUAGAUGUAGGAGAAUUAGUGAUGUUAGUUAUGGUAGAGAUAGGAGUAGAAGGUUGGUGUGUGU [RHig 3/7 B] | 428 nM
21 | GCCCUUCAGGUCGGAGUGAUGUUCCAAUGGAAGGAUAUCCGGGCUCGGAGAAGGUCCAAUUGUGUCUUGUUAAGGUGCUCACUAC [theeternabot_sameState_KL_FMN_A_46] | 223 nM
22 | GCCCACAUUAGUGAUACCAGUGGGCACUCACCAGUUCAGUGAUGUUGGACGCAGUGUGGUCACCCUUGGCAGCACCGAUGCCCUU [theeternabot_sameState_KL_Theo_B_32] | 129 nM
23 | UGUGUUGUUUUGAUGUUUGUUGUAAGUUGGCAGGAUAUCGUAGAGGCGAGAAGGGCUUUUAUGCGUUAUGAGUGAUGUUUGUAGG [ggbgzmullin] | 319 nM
24 | GACACUCGGUGAUAAUAACCGUUACGCGAUACCAGCGUAACAGUACGCCCUUGGCAGCGCAGUGAUGUUGCGUGCCGAGUGUGAA [Theo A Ex Mod of Esbiceve] | 163 nM

Row | Sequence | apparent KD of K4 kissing-loop reporter
25 | GUAGCUUGGCUAGGAUAUUAGCGUAGGAGUGAUGUUCCGACUAGCGAAAGCUAGUCUCACGCUAGUUAAGAAGGAGCCAAGCUAC | 174 nM
26 | AGUGAUGUGGGAAGGAGCGCUACAUGACUUCAGUGAUGUUGAAGUGAUGAUUUAGUGAUGUAGCAGGUAGGUCGCCUAGAUGUUA [KL-XARG-B8] | 62.5 nM
27 | AAGUGAUGUUGUAGUGAUGUUGUGAUGUUGCAGGAUAUAUAGUGAUGUAGAAGGGUAUGUACUGAUUUUUUUUUUGAGUGAUGUU [awaqmullin] | 79.9 nM
28 | UUAUAUAAUUAGUCUUUUUUAACAUUAAGUCAGGAUAUCGUAUAUUCGAGAAGGGACACAUGCUAGUGAUGUUAGCUAUUUCUUU [JR_ExcFMNA_Sub017] | 31.5 nM
29 | GGUUGCAGCCCUGCAUCGUGGGUUUAGAGUAAGGAUAUUCGCCAAGGAAGAAGGUACUCUGCAUUGAGUGAUGUUCAAUAAGAUG [theeternabot_sameState_KL_FMN_A_30] | 104 nM
30 | CCUAUCUCAUACGAUACCAGUCAACGAUAUUUUAUCGAUGCCAUCACCGAGUGAUGUUCGGACCCUUGGCAGCGUAUGGGAUAGG [Ex Theophylline B K4 4] | 251 nM
31 | AGUGAUGUUGAGUUAUCUUAGUGAAGUGAUCGAGGACCGGUACGGCCGCCACUCGAGUGAUGAGUGAGUGAUGUUUGUUUAGUGA [zzymullin] | 311 nM
32 | GGGAGUAGUGCGGCCGCCACUGUGAAAGAAGAAGAAUAUAGUGAUGUUAUAUAGGAAUAAAAGAAUAGGACCGGGCAUUAGAUUU [SSTRyptB.R] | 139 nM
33 | GUUCCCUACAAGGAUACCAGAACGUGUAGUCCGAGCGCUAGUGAUGUUGGCGUCUACCUCUUCCCUUGGCAGCCUGCAAAUCAGU [theeternabot_sameState_KL_Theo_B_48] | 200 nM
34 | AGCCUAGGAGUCAUUUCCUGCCCGUACGAUACCAGCAUUACCAGUUGCCCUUGGCAGCGUUAUAAGGCCAGUGAUGUUGGCCACU [theeternabot_sameState_KL_Theo_A_22] | 167 nM
35 | UGAUAAAGCAGUGAUGUUGCAAGAAAUGAUACCAGUUAAGAAAAGAACCCUUGGCAGCAUAAAGUGCGCUCUAAUGAGUGUGCUU [theophylline a same state] | 126 nM
36 | GGUAUCUAUACAGAUACCAGUCGUACAGCACCAUUACAGGUUAGUGAUGUUAACCUGUACGACCCUUGGCAGCUGUAUAAUAAUA [Theo B Ex t2a] | 87.9 nM
37 | ACGUAGUUCUAGGAUACCAGCCAAAUAGCCAGGACGAGAGUCCUGGCUGCCAGUGAUGUUGGCCCUUGGCAGCCUAGAUCUUCUU [zmodel 1] | 149 nM
38 | UGAUACCAGACGGCCGCCACUUCCGUAAGUCAAAGACUUACCAAGAGAAUCGUCCAGUGAUGUUGGAGGACCGGGUCUGGUAUCU [FiskerMod 7 - Jieux - Exclusion - Tryptophan B] | 872 nM
39 | GCAAAACGCAGUGAUGUUGCGAUCUCGGAAGGAGCGCGUGAAAACGCAGGUAGGUCGCCGAGUCAGUGAGUAUCUCGCUGUUUGC [Arginine A K4 19] | 322 nM
40 | UGAAAUCGAAUUCCGCGUGCAACGCCAGUAAAGGAUAUCAUCACACUGAGAAGGUUACGAAGCGGAGUGAUGUUCCGCUCUAUCC [theeternabot_sameState_KL_FMN_A_50] | 98.5 nM
